In patent US20070161783A1 (published 2007) one finds Kd and IC50 data, which are given here for 4 molecules.

Residue numbers refer to the chain shown, from its start.

For one assay, the target named is H1L4. Briefly: SPR. On the technique in general: Surface plasmon resonance follows binding to a sensor surface in real time, without labels.
A further assay has as its target H3L2. Briefly: SPR.
The next assay concerns the target H4L3. Briefly: SPR.
For another assay, the target named is H1L3. In words: SPR.
A further assay concerns the target H3L3. In words: SPR.
A further assay deals with H4L4. Briefly: SPR.
The next assay deals with H2L1. In words: SPR.
The next assay deals with H3L1. Briefly: SPR.
In the next assay the target is H3L4. In words: SPR.
For the next assay, the target named is H2L3. Briefly: SPR.
The next assay addresses H2L4. In words: SPR.
The next assay concerns the target H6L4. Briefly: SPR.
The next assay concerns the target H6L3. In words: SPR.
The next assay has as its target H4L1. In words: SPR.
For another assay, the target named is H1L1. Briefly: SPR.
In assay [1] the target is H3.77_L3 I332E/H268E Hybrid.
The target of assay [2] is H3.77_L3 I332E/G236A Hybrid.
Assay [3] has as its target H3.77_L3 S239D/I332E Hybrid.
Assay [4] has as its target H3.77_L3 S239D/I332E/A330Y Hybrid.
Assay [5] concerns the target H3.77_L3 S239D/I332E/G236A Hybrid.
The target in assay [6] is H3.77_L3 I332E/H268E/G236A Hybrid.
Assay [7] deals with H3.77_L3 S239D/H268E Hybrid.
The target in assay [8] is T1, extracellular domain of Ep-CAM (UniProt P16422 24-265, DIGylated (sites not given)).
T1 chain: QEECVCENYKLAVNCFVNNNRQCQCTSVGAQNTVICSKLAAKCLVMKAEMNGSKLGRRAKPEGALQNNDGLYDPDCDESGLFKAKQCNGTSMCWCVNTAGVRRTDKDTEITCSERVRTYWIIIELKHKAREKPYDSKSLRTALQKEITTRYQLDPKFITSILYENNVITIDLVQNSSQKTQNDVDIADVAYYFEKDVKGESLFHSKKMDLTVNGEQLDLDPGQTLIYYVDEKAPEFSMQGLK
In words: AlphaScreen competition. On the technique in general: Bead proximity is the source of the signal in Alpha formats.

The target of the next assay is FcγRIIIa (158V form) (human, UniProt P08637 17-208). Briefly: AlphaScreen competition.
Chain of FcγRIIIa (158V form) (P08637 17-208 F176V): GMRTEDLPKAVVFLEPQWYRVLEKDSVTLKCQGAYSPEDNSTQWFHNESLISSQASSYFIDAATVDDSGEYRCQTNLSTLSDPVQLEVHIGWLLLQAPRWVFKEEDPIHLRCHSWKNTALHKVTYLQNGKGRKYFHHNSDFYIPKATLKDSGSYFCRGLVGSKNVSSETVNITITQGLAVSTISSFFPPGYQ

B1: EpCAM (Fc fusion)
chain: T1 chain
In the case of B1, the Kd turned out to be 58.9 nM with H1L4; 615 nM with H3L2; 1310 nM with H4L3; 54.1 nM with H1L3; 292 nM with H3L3; 3000 nM in the assay with H4L4. The dissociation constant (Kd) with H2L1 is 75.4 nM; in the assay with H3L1 it was 385 nM; with H3L4, 335 nM; with H2L3 it was 63 nM; with H2L4, 66.6 nM; with H6L4, 5200 nM. Besides, the figures for the dissociation constant Kd with H6L3, with H4L1 and with H1L1 were 4800 nM, 6600 nM and 77.8 nM, respectively.

B2: FcgRIIb (receptor)
chain: TPAAPPKAVLKLEPQWINVLQEDSVTLTCRGTHSPESDSIQWFHNGNLIPTHTQPSYRFKANNNDSGEYTCQTGQTSLSDPVHLTVLSEWLVLQTPHLEFQEGETIVLRCHSWKDKPLVKVTFFQNGKSKKFSRSDPNFSIPQANHSHSGDYHCTGNIGYTLYSSKPVTITVQAP
In the case of B2, the Kd in assay [1] was 117 nM; in assay [2], 557 nM; in assay [3], 142 nM; in assay [4], 144 nM; in assay [5], 146 nM; with H3.77_L3 WT Hybrid it was 635 nM. The Kd in assay [6] stood at 154 nM; in [7] it was 81.5 nM.

B3: R131 FcgRIIa (receptor)
chain: QAAAPPKAVLKLEPPWINVLQEDSVTLTCQGARSPESDSIQWFHNGNLIPTHTQPSYRFKANNNDSGEYTCQTGQTSLSDPVHLTVLSEWLVLQTPHLEFQEGETIMLRCHSWKDKPLVKVTFFQNGKSQKFSRLDPTFSIPQANHSHSGDYHCTGNIGYTLFSSKPVTITVQVPSMGSSSPMG
As for B3, the dissociation constant (Kd) in [1] is 86.1 nM; in assay [2], 54.4 nM; in [3], 78.9 nM; in assay [4] it was 88.9 nM; in [5], 13.7 nM; in the assay with H3.77_L3 WT Hybrid, 413 nM. Besides, binding in [7] was put at a Kd of 42.7 nM.

B4: 17-1A H0 (antibody)
chain: QVQLQQSGAELVRPGTSVKVSCKASGYAFTNYLIEWVKQRPGQGLEWIGVINPGSGGTNYNEKFKGKATLTADKSSSTAYMQLSSLTSDDSAVYFCARDGPWFAYWGQGTLVTVSA
On to B4, for which the half-maximal inhibitory concentration (IC50) was found to be 333 nM in assay [8] and 32.7 nM with FcγRIIIa (158V form).

For orientation: Kd means the free concentration of one partner at which half of the binding sites on the other are occupied at equilibrium, for simple one-to-one binding. The term IC50 denotes the concentration at which inhibition is half-maximal. Read a high IC50 as a need for much substance.
